{
  "source": "patent US20200216495A1",
  "about": "(ADRX, published 2020)",
  "note": "Several values for one entry are separate records, joined by “and”; a condition that tells them apart may be missing. Equal values may be shown once. Square brackets hold non-standard residues; d marks the D form. Ends that are not written are not given here.",
  "data": [
    {"biological_target": "Tau40 P301L protein (human)", "assay": "cell-based or functional assay", "values": [
      {"binder": "[dL][dR][dI][dR][dI][dR][dF][dH]", "note": "[lririrfh (PEPTIDE ID NO: 152)]", "IC50, Tau40 assay (ThT)": "1410 nM and 1870 nM"},
      {"binder": "[dW][dR][dL][dK][dV][dR][dE][dW]", "note": "[wrlkvrew (PEPTIDE ID NO: 284)]", "IC50, Tau40 assay (ThT)": "1640 nM"},
      {"binder": "[dL][dK][dV][dR][dW][dW][dW][dR]", "note": "[lkvrwwwr (PEPTIDE ID NO: 199)]", "IC50, Tau40 assay (ThT)": "700 nM"},
      {"binder": "[dR][dT][dL][dK][dI][dV][dW][dR]", "note": "[rtlkivwr (PEPTIDE ID NO: 22)]", "IC50, Tau40 assay (ThT)": "1670 nM"},
      {"binder": "[dW][dR][dL][dR][dL][dR][dW]", "note": "[wrlrlrw (PEPTIDE ID NO: 200)]", "IC50, Tau40 assay (ThT)": "700 nM"},
      {"binder": "[dW][dQ][dL][dK][dV][dR][dW]", "note": "[wqlkvrw (PEPTIDE ID NO: 273)]", "IC50, Tau40 assay (ThT)": "1490 nM"},
      {"binder": "[dW][dR][dV][dQ][dV][dR][dW]", "note": "[wrvqvrw (PEPTIDE ID NO: 102)]", "IC50, Tau40 assay (ThT)": "1540 nM and 1570 nM"},
      {"binder": "[dT][dK][dI][dR][dI][dH][dY]", "note": "[tkirihy (PEPTIDE ID NO: 283)]", "IC50, Tau40 assay (ThT)": "1630 nM"},
      {"binder": "[dR][dW][dR][dW][dR][dW]", "note": "[rwrwrw (PEPTIDE ID NO: 17)]", "IC50, Tau40 assay (ThT)": "1460 nM"},
      {"binder": "[dF][dK][dI][dK][dI][dK][dW] (not fully specified; printed as fkikikw)", "note": "[fkikikw (PEPTIDE ID NO: 60)]", "IC50, Tau40 assay (ThT)": "1570 nM and 1650 nM"},
      {"binder": "[dY][dW][dR][dL][dK][dV][dR][dW]", "note": "[ywrlkvrw (PEPTIDE ID NO: 268)]", "IC50, Tau40 assay (ThT)": "1430 nM"},
      {"binder": "[dL][dK][dI][dR][dI][dH][dR][dH]", "note": "[lkirihrh (PEPTIDE ID NO: 274)]", "IC50, Tau40 assay (ThT)": "1510 nM"},
      {"binder": "[dR][dI][dR][dI][dR][dW]", "note": "[ririrw (PEPTIDE ID NO: 75)]", "IC50, Tau40 assay (ThT)": "1470 nM and 710 nM"},
      {"binder": "[dL][dR][dL][dH][dL][dR][dH][dW]", "note": "[lrlhlrhw (PEPTIDE ID NO: 149)]", "IC50, Tau40 assay (ThT)": "1640 nM and 2060 nM"},
      {"binder": "[dW][dR][dL][dK][dV][dR][dW][dE]", "note": "[wrlkvrwe (PEPTIDE ID NO: 275)]", "IC50, Tau40 assay (ThT)": "1520 nM"},
      {"binder": "[dW][dK][dV][dW][dV][dR][dY][dW]", "note": "[wkvwvryw (PEPTIDE ID NO: 92)]", "IC50, Tau40 assay (ThT)": "700 nM and 810 nM"},
      {"binder": "[dL][dK][dI][dR][dI][dY][dY]", "note": "[lkiriyy (PEPTIDE ID NO: 277)]", "IC50, Tau40 assay (ThT)": "1570 nM"},
      {"binder": "[dW][dR][dL][dK][dV][dR][dW][dW]", "note": "[wrlkvrww (PEPTIDE ID NO: 3)]", "IC50, Tau40 assay (ThT)": "1610 nM and 750 nM"},
      {"binder": "[dW][dR][dT][dK][dV][dR][dW]", "note": "[wrtkvrw (PEPTIDE ID NO: 276)]", "IC50, Tau40 assay (ThT)": "1560 nM"},
      {"binder": "[dL][dK][dI][dR][dL][dH][dH][dW]", "note": "[lkirlhhw (PEPTIDE ID NO: 143)]", "IC50, Tau40 assay (ThT)": "1420 nM and 1070 nM"},
      {"binder": "[dL][dK][dI][dQ][dI][dH][dY]", "note": "[lkiqihy (PEPTIDE ID NO: 285)]", "IC50, Tau40 assay (ThT)": "1640 nM"},
      {"binder": "[dH][dW][dR][dL][dK][dV][dR][dW]", "note": "[hwrlkvrw (PEPTIDE ID NO: 266)]", "IC50, Tau40 assay (ThT)": "1420 nM"},
      {"binder": "[dK][dL][dK][dL][dR][dW][dF]", "note": "[klklrwf (PEPTIDE ID NO: 438)]", "IC50, Tau40 assay (ThT)": "1670 nM"},
      {"binder": "[dW][dL][dK][dI][dR][dI][dH][dY]", "note": "[wlkirihy (PEPTIDE ID NO: 198)]", "IC50, Tau40 assay (ThT)": "690 nM"},
      {"binder": "[dF][dR][dL][dR][dI][dW][dW]", "note": "[frlriww (PEPTIDE ID NO: 423)]", "IC50, Tau40 assay (ThT)": "1410 nM"},
      {"binder": "[dW][dR][dL][dK][dV][dQ][dW]", "note": "[wrlkvqw (PEPTIDE ID NO: 281)]", "IC50, Tau40 assay (ThT)": "1620 nM"},
      {"binder": "[dW][dR][dL][dR][dI][dA][dW]", "note": "[wrlriaw (PEPTIDE ID NO: 272)]", "IC50, Tau40 assay (ThT)": "1490 nM"},
      {"binder": "[dL][dH][dI][dK][dL][dR][dW][dH]", "note": "[lhiklrwh (PEPTIDE ID NO: 151)]", "IC50, Tau40 assay (ThT)": "1650 nM and 1830 nM"},
      {"binder": "[dR][dL][dR][dI][dR][dW]", "note": "[rlrirw (PEPTIDE ID NO: 27)]", "IC50, Tau40 assay (ThT)": "1610 nM"},
      {"binder": "[dL][dK][dI][dR][dI][dH][dY][dA]", "note": "[lkirihya (PEPTIDE ID NO: 269)]", "IC50, Tau40 assay (ThT)": "1450 nM"},
      {"binder": "[dF][dK][dI][dH][dI][dK][dH][dY]", "note": "[fkihikhy (PEPTIDE ID NO: 127)]", "IC50, Tau40 assay (ThT)": "1650 nM and 1790 nM"},
      {"binder": "[dW][dR][dL][dK][dV][dR][dR][dW]", "note": "[wrlkvrrw (PEPTIDE ID NO: 278)]", "IC50, Tau40 assay (ThT)": "1580 nM"},
      {"binder": "[dW][dR][dL][dQ][dV][dR][dW]", "note": "[wrlqvrw (PEPTIDE ID NO: 280)]", "IC50, Tau40 assay (ThT)": "1600 nM"},
      {"binder": "[dW][dH][dL][dR][dI][dR][dW]", "note": "[whlrirw (PEPTIDE ID NO: 19)]", "IC50, Tau40 assay (ThT)": "1540 nM and 1630 nM"},
      {"binder": "[dW][dR][dL][dK][dV][dR][dW][dL]", "note": "[wrlkvrwl (PEPTIDE ID NO: 197)]", "IC50, Tau40 assay (ThT)": "680 nM"},
      {"binder": "[dW][dK][dV][dK][dI][dQ][dY][dH]", "note": "[wkvkiqyh (PEPTIDE ID NO: 100)]", "IC50, Tau40 assay (ThT)": "1560 nM and 1610 nM"},
      {"binder": "[dF][dR][dI][dR][dL][dR][dW]", "note": "[frirlrw (PEPTIDE ID NO: 56)]", "IC50, Tau40 assay (ThT)": "1460 nM"},
      {"binder": "[dL][dK][dI][dR][dI][dA][dY]", "note": "[lkiriay (PEPTIDE ID NO: 271)]", "IC50, Tau40 assay (ThT)": "1480 nM"},
      {"binder": "[dH][dR][dL][dK][dV][dR][dW][dW]", "note": "[hrlkvrww (PEPTIDE ID NO: 265)]", "IC50, Tau40 assay (ThT)": "1410 nM"},
      {"binder": "[dE][dI][dR][dL][dH][dW]", "note": "[eirlhw (PEPTIDE ID NO: 74)]", "IC50, Tau40 assay (ThT)": "1540 nM"}
    ]}
  ]
}
